Data as given in the supplement of paper PMC5998384.

Legend:
HeLa Kyoto [1] = test: solubility in G1/S (NP-40 vs SDS abundance) (log2 ratio); higher = more soluble; settings: cell cycle stage: G1/S
HeLa Kyoto [2] = test: melting temperature (median over replicates), in situ; higher = more thermally stable
HeLa Kyoto [3] = test: solubility change mitosis vs G1/S (difference of NP-40 vs SDS log2 ratios) (log2 ratio difference); higher = more soluble in mitosis
HeLa Kyoto [4] = test: thermal stability score vs G1/S (z-score of summed log2 fold changes over temperatures); higher = more thermally stable than in G1/S
[5] = cell cycle stage: early G1 (4.5 h after nocodazole release)
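Throughout, for melting temperature (median over replicates), in situ: HeLa Kyoto cells synchronized by double thymidine or nocodazole block, proteins quantified by TMT10plex mass spectrometry, three independent biological replicates.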
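Throughout, for solubility change mitosis vs G1/S (difference of NP-40 vs SDS log2 ratios): synchronized HeLa Kyoto cells (double thymidine block for G1/S, nocodazole release for mitosis), protein amounts in NP-40 versus SDS lysates quantified by mass spectrometry, three biological replicates.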
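Throughout, for solubility in G1/S (NP-40 vs SDS abundance): HeLa Kyoto cells arrested at G1/S by double thymidine block, proteins quantified by TMT10plex mass spectrometry in mild NP-40 versus SDS extracts, three biological replicates.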
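Throughout, for thermal stability score vs G1/S (z-score of summed log2 fold changes over temperatures): synchronized HeLa Kyoto cells, proteins quantified by TMT10plex mass spectrometry, three biological replicates, mitosis taken 0.5 h after nocodazole release, G1/S directly after double thymidine block.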

Sequence of LARP4B (chain, as listed by the source): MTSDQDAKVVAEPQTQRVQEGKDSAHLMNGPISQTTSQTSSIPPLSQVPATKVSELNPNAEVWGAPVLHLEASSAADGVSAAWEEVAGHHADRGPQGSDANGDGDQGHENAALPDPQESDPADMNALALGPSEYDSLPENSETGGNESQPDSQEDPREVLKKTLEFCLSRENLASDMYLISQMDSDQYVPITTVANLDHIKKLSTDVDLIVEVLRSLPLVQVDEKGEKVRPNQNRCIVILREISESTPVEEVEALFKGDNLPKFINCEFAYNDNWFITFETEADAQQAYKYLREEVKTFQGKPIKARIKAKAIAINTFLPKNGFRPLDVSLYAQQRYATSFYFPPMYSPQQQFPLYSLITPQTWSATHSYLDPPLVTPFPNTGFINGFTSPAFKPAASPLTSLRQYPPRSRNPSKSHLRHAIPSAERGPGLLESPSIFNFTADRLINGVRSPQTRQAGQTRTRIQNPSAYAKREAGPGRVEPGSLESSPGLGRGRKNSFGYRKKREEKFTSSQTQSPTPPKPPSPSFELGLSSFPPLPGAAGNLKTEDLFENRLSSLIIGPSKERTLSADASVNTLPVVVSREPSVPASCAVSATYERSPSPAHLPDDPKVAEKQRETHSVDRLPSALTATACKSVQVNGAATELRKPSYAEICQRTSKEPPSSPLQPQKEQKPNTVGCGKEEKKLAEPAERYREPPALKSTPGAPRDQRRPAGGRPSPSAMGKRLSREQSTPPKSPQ
Sequence of NOS1AP (chain, as listed by the source): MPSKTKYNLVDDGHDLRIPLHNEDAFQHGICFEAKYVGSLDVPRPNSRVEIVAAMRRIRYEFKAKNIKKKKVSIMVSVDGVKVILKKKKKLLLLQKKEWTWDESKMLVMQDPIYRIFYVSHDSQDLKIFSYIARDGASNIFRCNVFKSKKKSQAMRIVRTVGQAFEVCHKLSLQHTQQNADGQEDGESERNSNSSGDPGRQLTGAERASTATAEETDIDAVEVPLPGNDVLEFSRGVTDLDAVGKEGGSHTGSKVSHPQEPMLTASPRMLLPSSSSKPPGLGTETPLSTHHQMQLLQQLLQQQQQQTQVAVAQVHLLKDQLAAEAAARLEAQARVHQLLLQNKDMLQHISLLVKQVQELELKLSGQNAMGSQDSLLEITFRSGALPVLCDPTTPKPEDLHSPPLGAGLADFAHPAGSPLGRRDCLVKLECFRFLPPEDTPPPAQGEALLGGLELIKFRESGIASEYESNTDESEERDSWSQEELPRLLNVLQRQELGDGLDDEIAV
Sequence of LIMD1 (chain, as listed by the source): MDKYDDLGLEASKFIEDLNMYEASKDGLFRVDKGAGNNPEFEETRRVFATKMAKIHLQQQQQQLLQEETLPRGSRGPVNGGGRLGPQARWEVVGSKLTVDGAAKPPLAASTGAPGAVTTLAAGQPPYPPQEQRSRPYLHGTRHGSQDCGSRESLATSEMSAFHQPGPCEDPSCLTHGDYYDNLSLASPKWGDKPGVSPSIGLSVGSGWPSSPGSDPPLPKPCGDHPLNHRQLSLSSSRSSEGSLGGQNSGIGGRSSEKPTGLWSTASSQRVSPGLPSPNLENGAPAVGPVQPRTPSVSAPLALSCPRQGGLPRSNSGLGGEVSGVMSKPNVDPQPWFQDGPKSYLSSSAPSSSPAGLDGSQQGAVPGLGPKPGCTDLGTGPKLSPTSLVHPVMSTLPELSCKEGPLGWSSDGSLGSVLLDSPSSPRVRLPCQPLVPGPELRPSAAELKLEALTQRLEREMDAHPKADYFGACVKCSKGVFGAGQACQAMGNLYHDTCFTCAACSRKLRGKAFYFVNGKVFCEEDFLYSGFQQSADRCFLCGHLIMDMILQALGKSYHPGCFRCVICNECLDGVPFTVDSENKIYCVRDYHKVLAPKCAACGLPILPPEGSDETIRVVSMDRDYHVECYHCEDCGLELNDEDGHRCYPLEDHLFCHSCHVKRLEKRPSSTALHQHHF
Sequence of IRF2BP1 (chain, as listed by the source): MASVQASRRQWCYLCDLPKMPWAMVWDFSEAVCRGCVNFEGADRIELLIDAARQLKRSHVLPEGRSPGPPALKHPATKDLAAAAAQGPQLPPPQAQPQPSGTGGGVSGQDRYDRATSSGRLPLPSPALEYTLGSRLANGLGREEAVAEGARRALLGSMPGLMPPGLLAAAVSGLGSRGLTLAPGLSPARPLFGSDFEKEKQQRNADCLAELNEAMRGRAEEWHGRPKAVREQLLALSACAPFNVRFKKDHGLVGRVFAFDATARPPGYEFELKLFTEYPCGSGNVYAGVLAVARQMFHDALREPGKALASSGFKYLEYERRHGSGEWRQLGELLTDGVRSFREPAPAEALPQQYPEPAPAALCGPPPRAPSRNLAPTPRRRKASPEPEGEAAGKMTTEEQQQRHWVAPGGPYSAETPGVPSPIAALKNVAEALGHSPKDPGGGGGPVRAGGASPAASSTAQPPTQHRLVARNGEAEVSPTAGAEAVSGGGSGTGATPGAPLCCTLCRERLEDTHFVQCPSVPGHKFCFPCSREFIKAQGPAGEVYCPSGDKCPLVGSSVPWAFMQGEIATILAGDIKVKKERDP

Substance: INADL
- solubility in G1/S (log2) (HeLa Kyoto [1]): -0.0157
- melting temperature (HeLa Kyoto [2]; cell cycle stage: G1/S): 47.4 °C
- melting temperature (HeLa Kyoto [2]; cell cycle stage: mitosis): 49.2 °C
- solubility change mitosis (log2) (HeLa Kyoto [3]): -0.068
- thermal stability score (HeLa Kyoto [4]; [5]): 0.59
- thermal stability score (HeLa Kyoto [4]; cell cycle stage: mitosis): 1.68

Substance: IRF2BP1
- solubility in G1/S (log2) (HeLa Kyoto [1]): 0.316
- melting temperature (HeLa Kyoto [2]; cell cycle stage: G1/S): 46.9 °C
- melting temperature (HeLa Kyoto [2]; cell cycle stage: mitosis): 49.5 °C
- solubility change mitosis (log2) (HeLa Kyoto [3]): -0.0595
- thermal stability score (HeLa Kyoto [4]; [5]): 1.4
- thermal stability score (HeLa Kyoto [4]; cell cycle stage: mitosis): 3.22

Substance: ITPR3
- solubility in G1/S (log2) (HeLa Kyoto [1]): -0.508
- melting temperature (HeLa Kyoto [2]; cell cycle stage: G1/S): 48.6 °C
- melting temperature (HeLa Kyoto [2]; cell cycle stage: mitosis): 50.1 °C
- solubility change mitosis (log2) (HeLa Kyoto [3]): 0.0432
- thermal stability score (HeLa Kyoto [4]; [5]): 0.858
- thermal stability score (HeLa Kyoto [4]; cell cycle stage: mitosis): 2.41

Substance: KDM3B
- solubility in G1/S (log2) (HeLa Kyoto [1]): 0.00792
- melting temperature (HeLa Kyoto [2]; cell cycle stage: G1/S): 48.6 °C
- melting temperature (HeLa Kyoto [2]; cell cycle stage: mitosis): 49.8 °C
- solubility change mitosis (log2) (HeLa Kyoto [3]): -0.108
- thermal stability score (HeLa Kyoto [4]; [5]): 0.937
- thermal stability score (HeLa Kyoto [4]; cell cycle stage: mitosis): 2.62

Substance: KDM5C
- solubility in G1/S (log2) (HeLa Kyoto [1]): -0.0935
- melting temperature (HeLa Kyoto [2]; cell cycle stage: G1/S): 49.3 °C
- melting temperature (HeLa Kyoto [2]; cell cycle stage: mitosis): 50 °C
- solubility change mitosis (log2) (HeLa Kyoto [3]): -0.075
- thermal stability score (HeLa Kyoto [4]; [5]): 0.484
- thermal stability score (HeLa Kyoto [4]; cell cycle stage: mitosis): 0.572

Substance: KIF21A
- solubility in G1/S (log2) (HeLa Kyoto [1]): -0.0549
- melting temperature (HeLa Kyoto [2]; cell cycle stage: G1/S): 49.5 °C
- melting temperature (HeLa Kyoto [2]; cell cycle stage: mitosis): 50.3 °C
- solubility change mitosis (log2) (HeLa Kyoto [3]): -0.0922
- thermal stability score (HeLa Kyoto [4]; [5]): -1.01
- thermal stability score (HeLa Kyoto [4]; cell cycle stage: mitosis): 0.181

Substance: KNTC1
- solubility in G1/S (log2) (HeLa Kyoto [1]): -0.33
- melting temperature (HeLa Kyoto [2]; cell cycle stage: G1/S): 49.6 °C
- melting temperature (HeLa Kyoto [2]; cell cycle stage: mitosis): 49.4 °C
- solubility change mitosis (log2) (HeLa Kyoto [3]): -0.188
- thermal stability score (HeLa Kyoto [4]; [5]): -0.336
- thermal stability score (HeLa Kyoto [4]; cell cycle stage: mitosis): 0.546

Substance: LAMC1
- solubility in G1/S (log2) (HeLa Kyoto [1]): -0.0818
- melting temperature (HeLa Kyoto [2]; cell cycle stage: G1/S): 53.5 °C
- melting temperature (HeLa Kyoto [2]; cell cycle stage: mitosis): 53.9 °C
- solubility change mitosis (log2) (HeLa Kyoto [3]): -0.0329
- thermal stability score (HeLa Kyoto [4]; [5]): 2.27
- thermal stability score (HeLa Kyoto [4]; cell cycle stage: mitosis): 3.77

Substance: LARP4B
- solubility in G1/S (log2) (HeLa Kyoto [1]): -0.183
- melting temperature (HeLa Kyoto [2]; cell cycle stage: G1/S): 50.8 °C
- melting temperature (HeLa Kyoto [2]; cell cycle stage: mitosis): 50 °C
- solubility change mitosis (log2) (HeLa Kyoto [3]): 0.533
- thermal stability score (HeLa Kyoto [4]; [5]): -0.656
- thermal stability score (HeLa Kyoto [4]; cell cycle stage: mitosis): -1.1

Substance: LIMD1
- solubility in G1/S (log2) (HeLa Kyoto [1]): 0.148
- melting temperature (HeLa Kyoto [2]; cell cycle stage: G1/S): 51.8 °C
- melting temperature (HeLa Kyoto [2]; cell cycle stage: mitosis): 51.9 °C
- solubility change mitosis (log2) (HeLa Kyoto [3]): -0.126
- thermal stability score (HeLa Kyoto [4]; [5]): 0.183
- thermal stability score (HeLa Kyoto [4]; cell cycle stage: mitosis): -0.541

Substance: LRP1
- solubility in G1/S (log2) (HeLa Kyoto [1]): -0.0261
- melting temperature (HeLa Kyoto [2]; cell cycle stage: G1/S): 55.5 °C
- melting temperature (HeLa Kyoto [2]; cell cycle stage: mitosis): 55.1 °C
- solubility change mitosis (log2) (HeLa Kyoto [3]): -0.0628
- thermal stability score (HeLa Kyoto [4]; [5]): -1.09
- thermal stability score (HeLa Kyoto [4]; cell cycle stage: mitosis): -1.22

Substance: LSM14B
- solubility in G1/S (log2) (HeLa Kyoto [1]): 0.0485
- melting temperature (HeLa Kyoto [2]; cell cycle stage: G1/S): 49.6 °C
- melting temperature (HeLa Kyoto [2]; cell cycle stage: mitosis): 50 °C
- solubility change mitosis (log2) (HeLa Kyoto [3]): 0.137
- thermal stability score (HeLa Kyoto [4]; [5]): 0.76
- thermal stability score (HeLa Kyoto [4]; cell cycle stage: mitosis): 1.45

Substance: MSSECDGGSKAVMNGLAPGSNGQDKATADPLRARSISAVKIIPVKTVKNASGLVLPTDMDLTKICTGKGAVTLRASSSYRETPSSSPASPQETRQHESKPGLEPEPSSADEWRLSSSADANGNAQPSSLAAKGYRSVHPNLPSDKSQDATSSSAAQPEVIVVPLYLVNTDRGQEGTARPPTPLGPLGCVPTIPATASAASPLTFPTLDDFIPPHLQRWPHHSQPARASGSFAPISQTPPSFSPPPPLVPPAPEDLRRVSEPDLTGAVSSTDSSPLLNEVSSSLIGTDSQAFPSVSKPSSAYPSTTIVNPTIVLLQHNREQQKRLSSLSDPVSERRVGEQDSAPTQEKPTSPGKAIEKRAKDDSRRVVKSTQDLSDVSMDEVGIPLRNTERSKDWYKTMFKQIHKLNRDTPEENPYFPTYKFPELPEIQQTSEEDNPYTPTYQFPASTPSPKSEDDDSDLYSPRYSFSEDTKSPLSVPRSKSEMSYIDGEKVVKRSATLPLPARSSSLKSSSERNDWEPPDKKVDTRKYRAEPKSIYEYQPGKSSVLTNEKMSRDISPEEIDLKNEPWYKFFSELEFGKPPPKKIWDYTPGDCSILPREDRKTNLDKDLSLCQTELEADLEKMETLNKAPSANVPQSSAISPTPEISSETPGYIYSSNFHAVKRESDGAPGDLTSLENERQIYKSVLEGGDIPLQGLSGLKRPSSSASTKDSESPRHFIPADYLESTEEFIRRRHDDKEKLLADQRRLKREQEEADIAARRHTGVIPTHHQFITNERFGDLLNIDDTAKRKSGSEMRPARAKFDFKAQTLKELPLQKGDIVYIYKQIDQNWYEGEHHGRVGIFPRTYIELLPPAEKAQPKKLTPVQVLEYGEAIAKFNFNGDTQVEMSFRKGERITLLRQVDENWYEGRIPGTSRQGIFPITYVDVIKRPLVKNPVDYMDLPFSSSPSRSATASPQFSSHSKLITPAPSSLPHSRRALSPEMHAVTSEWISLTVGVPGRRSLALTPPLPPLPEASIYNTDHLALSPRASPSLSLSLPHLSWSDRPTPRSVASPLALPSPHKTYSLAPTSQASLHMNGDGGVHTPSSGIHQDSFLQLPLGSSDSVISQLSDAFSSQSKRQPWREESGQYERKAERGAGERGPGGPKISKKSCLKPSDVVRCLSTEQRLSDLNTPEESRPGKPLGSAFPGSEAEQTERHRGGEQAGRKAARRGGSQQPQAQQRRVTPDRSQTSQDLFSYQALYSYIPQNDDELELRDGDIVDVMEKCDDGWFVGTSRRTKQFGTFPGNYVKPLYL [SORBS1]
- solubility in G1/S (log2) (HeLa Kyoto [1]): -0.0532
- solubility change mitosis (log2) (HeLa Kyoto [3]): 0.424
- thermal stability score (HeLa Kyoto [4]; [5]): -0.134
- thermal stability score (HeLa Kyoto [4]; cell cycle stage: mitosis): 4.08

Substance: MSWLFGVNKGPKGEGAGPPPPLPPAQPGAEGGGDRGLGDRPAPKDKWSNFDPTGLERAAKAARELEHSRYAKEALNLAQMQEQTLQLEQQSKLKEYEAAVEQLKSEQIRAQAEERRKTLSEETRQHQARAQYQDKLARQRYEDQLKQQQLLNEENLRKQEESVQKQEAMRRATVEREMELRHKNEMLRVETEARARAKAERENADIIREQIRLKASEHRQTVLESIRTAGTLFGEGFRAFVTDRDKVTATVAGLTLLAVGVYSAKNATAVTGRFIEARLGKPSLVRETSRITVLEALRHPIQVSRRLLSRPQDVLEGVVLSPSLEARVRDIAIATRNTKKNRGLYRHILLYGPPGTGKTLFAKKLALHSGMDYAIMTGGDVAPMGREGVTAMHKLFDWANTSRRGLLLFMDEADAFLRKRATEEISKDLRATLNAFLYHMGQHSNKFMLVLASNLPEQFDCAINSRIDVMVHFDLPQQEERERLVRLHFDNCVLKPATEGKRRLKLAQFDYGRKCSEVARLTEGMSGREIAQLAVSWQATAYASKDGVLTEAMMDACVQDAVQQYRQKMRWLKAEGPGRGVEHPLSGVQGETLTSWSLATDPSYPCLAGPCTFRICSWMGTGLCPGPLSPRMSCGGGRPFCPPGHPLL [ATAD3B]
- solubility in G1/S (log2) (HeLa Kyoto [1]): -0.105
- solubility change mitosis (log2) (HeLa Kyoto [3]): -0.00813
- thermal stability score (HeLa Kyoto [4]; [5]): 0.595
- thermal stability score (HeLa Kyoto [4]; cell cycle stage: mitosis): 0.439

Substance: MVRGARQPQQPRSRLAPRLTGTVEKPPRKRRSRTEFALKEIMSSGGAEDDIPQGERKTVTDFCYLLDKSKQLFNGLRDLPQYGQKQWQSYFGRTFDVYTKLWKFQQQHRQVLDNRYGLKRWQIGEIASKIGQLYYHYYLRTSETSYLNEAFSFYSAIRQRSYYSQVNKEDRPELVVKKLRYYARFIVVCLLLNKMDVVKDLVKELSDEIEDYTHRFNTEDQVEWNLVLQEVAAFIEADPVMVLNDDNTIVITSNRLAETGAPLLEQGMIVGQLSLADALIIGNCNNQVKFSELTVDMFRMLQALEREPMNLASQMNKPGMQESADKPTRRENPHKYLLYKPTFSQLYTFLAASFKELPANSVLLIYLSATGVFPTGRSDSEGPYDFGGVLTNSNRDIINGDAIHKRNQSHKEMHCLHPGDLYPFTRKPLFIIVDSSNSVAYKNFTNLFGQPLVCLLSPTAYPKALQDQSQRGSLFTLFLNNPLMAFLFVSGLSSMRRGLWEKCQEYLRKINRDIAQLLTHSRSIDQAFLQFFGDEFLRLLLTRFIFCSATMRMHKIFRETRNYPESYPQLPRDETVENPHLQKHILELASILDVRNVFFENTIDDY [SCAI]
- solubility in G1/S (log2) (HeLa Kyoto [1]): -0.309
- solubility change mitosis (log2) (HeLa Kyoto [3]): -0.117
- thermal stability score (HeLa Kyoto [4]; [5]): 0.148
- thermal stability score (HeLa Kyoto [4]; cell cycle stage: mitosis): -0.274

Substance: NOS1AP
- solubility in G1/S (log2) (HeLa Kyoto [1]): -0.0474
- solubility change mitosis (log2) (HeLa Kyoto [3]): -0.0377
- thermal stability score (HeLa Kyoto [4]; [5]): 0.688
- thermal stability score (HeLa Kyoto [4]; cell cycle stage: mitosis): 0.322

Substance: PIKFYVE
- solubility in G1/S (log2) (HeLa Kyoto [1]): -0.0952
- solubility change mitosis (log2) (HeLa Kyoto [3]): -0.153
- thermal stability score (HeLa Kyoto [4]; [5]): 0.473
- thermal stability score (HeLa Kyoto [4]; cell cycle stage: mitosis): 0.726

Substance: SNRPF
- solubility in G1/S (log2) (HeLa Kyoto [1]): -1.06
- solubility change mitosis (log2) (HeLa Kyoto [3]): -0.0169
- thermal stability score (HeLa Kyoto [4]; [5]): -0.0433
- thermal stability score (HeLa Kyoto [4]; cell cycle stage: mitosis): -0.451

Substance: VPS13D
- solubility in G1/S (log2) (HeLa Kyoto [1]): -0.404
- solubility change mitosis (log2) (HeLa Kyoto [3]): -0.104
- thermal stability score (HeLa Kyoto [4]; [5]): 0.236
- thermal stability score (HeLa Kyoto [4]; cell cycle stage: mitosis): -0.0982
